Data on three molecules can be found in article PMC5711770, “Acetylome of Acinetobacter baumannii SK17 Reveals a Highly-Conserved Modification of Histone-Like Protein HU” (Frontiers in Molecular Biosciences, 2017).

Series [1] deals with the molecule itself. Kind of series: SEC; analytical size-exclusion chromatography, Superdex 75 10/300 GL, PBS, 0.5 ml/min; size judged against ovalbumin (44 kDa) and myoglobin (17 kDa) markers.
Series [2] addresses HU (wt, C-terminal His-tag) (Acinetobacter baumannii SK17, UniProt A0ABX6CHP0). Kind of series: BLI; BLI: 30 mM Tris pH 7.5, 100 mM NaCl, 0.02% Tween20, 0.5 mg/ml BSA, 25°C; EMSA: same buffer, 37°C 1 h, 250 ng DNA in 10 µl, 1% agarose in TAE; AFM: 10 mM HEPES pH 7.5, 4 mM MgCl2. The following applies: protein: recombinant; chain copies: 2; label: 5'-biotin on strand 1; (only one strand printed). Background: BLI is a label-free optical method that tracks binding on a fibre tip over time.

Series [3] deals with HU (wt*, without His-tag) (Acinetobacter baumannii SK17, UniProt A0ABX6CHP0). The series is described as above. Conditions: protein: recombinant; tags: none; N-terminal GA remains after TEV cleavage; chain copies: 2; label: 5'-biotin on strand 1; (only one strand printed).
Series [4] deals with HU(K13ac) (C-terminal His-tag) (Acinetobacter baumannii SK17, UniProt A0ABX6CHP0, K13ac). Kind of series: BLI; kon and koff several-fold lower than wt; BLI: 30 mM Tris pH 7.5, 100 mM NaCl, 0.02% Tween20, 0.5 mg/ml BSA, 25°C; EMSA: same buffer, 37°C 1 h, 250 ng DNA in 10 µl, 1% agarose in TAE; AFM: 10 mM HEPES pH 7.5, 4 mM MgCl2. Conditions: protein: recombinant; chain copies: 2; label: 5'-biotin on strand 1; (only one strand printed).

B1: wild-type HU with a C-terminal His-tag (Acinetobacter baumannii SK17 histone-like DNA-binding protein HU) (natural protein, UniProt A0ABX6CHP0 1-90, looked up)
chain: MNKSELIDAIAEKGGVSKTDAGKALDATIASITEALKKGDTVTLVGFGTFSVKERAARTGRNPKTGEELQIKATKVPSFKAGKGLKDSVA
notes: cloned whole between NdeI and XhoI of pET-21a(+); also called wt HU; wt; source: E. coli BL21(DE3), purified (Ni-NTA, cation-exchange chromatography); not shown: His6, C-terminal, kept
As for B1, the stoichiometry N (as a rule, a count of units in the complex or per binding partner) in series [1] was determined as 2.

B2: HU(K13ac), HU acetylated at Lys13, with a C-terminal His-tag (natural protein, Acinetobacter baumannii SK17, UniProt A0ABX6CHP0 1-90, looked up)
chain: B1 chain
modifications: acetyllysine at residue 13
notes: the codon of Lys13 replaced by an amber codon for site-specific incorporation of acetyllysine; also called Lys13-acetylated HU; not shown: His6, C-terminal, kept
As for B2, the “stoichiometry N” value in series [1] is 2.

B3: biotin-labeled dsDNA (BLI) (dsDNA)
DNA 1: ATTAATATTTTCTTAAACTAATTTAAAAT
DNA 2: ATTTTAAATTAGTTTAAGAAAATATTAAT
In the case of B3, the Kd (in general, the free concentration of one partner at which half of the binding sites on the other are occupied at equilibrium, for simple one-to-one binding) in series [2] stood at 349 ± 352 nM; in series [3], 276 ± 143 nM; in series [4] it was 184 ± 9.3 nM.
